Experimental data as given in patent US20200317768A1 (published 2020).

T1: human FcγRIIb constitutively expressed on MDCK cells (human, UniProt P31994 43-310)
T1 sequence (looked up): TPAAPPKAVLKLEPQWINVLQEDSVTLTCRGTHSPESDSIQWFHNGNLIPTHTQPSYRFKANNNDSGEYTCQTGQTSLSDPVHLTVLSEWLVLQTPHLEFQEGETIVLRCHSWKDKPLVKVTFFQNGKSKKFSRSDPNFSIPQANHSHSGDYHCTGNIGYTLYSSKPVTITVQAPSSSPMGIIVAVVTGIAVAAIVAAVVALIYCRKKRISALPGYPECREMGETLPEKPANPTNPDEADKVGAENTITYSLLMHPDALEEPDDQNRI

T2: soluble mouse FcγRII, His-tagged (mouse, UniProt P08101 30-210, limits assumed)
T2 construct: Captured on the chip by an anti-His antibody
T2 sequence (looked up): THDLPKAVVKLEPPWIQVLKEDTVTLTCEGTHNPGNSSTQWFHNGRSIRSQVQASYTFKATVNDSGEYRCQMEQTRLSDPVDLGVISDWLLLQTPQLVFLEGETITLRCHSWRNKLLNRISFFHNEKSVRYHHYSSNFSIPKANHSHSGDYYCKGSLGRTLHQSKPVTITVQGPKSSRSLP


Columns and labels:
[1] = molecular target: T1, human FcγRIIb constitutively expressed …; test: cell-based or functional assay
[2] = molecular target: T2, soluble mouse FcγRII, His-tagged; test: SPR, mouse FcgRII-His captured, antigen-antibody complex injected, pH7.4, 25C
Experimental: Regarding the produced Fc region variant-containing antibodies, binding assays between soluble mouse FcγRII and antigen-antibody complexes were performed using BIACORE® T200 (GE Healthcare). Soluble mouse FcγRII was produced in the form of a His-tagged molecule by a method known to those skilled in the art. An appropriate amount of an anti-His antibody was fixed onto Sensor chip CM5 (GE Healthcare) by the amine coupling method using a His capture kit (GE Healthcare) to capture mouse FcγRII. Next, an antibody-antigen complex and a running buffer (as a reference solution) were injected, and interaction was allowed to take place with the mouse FcγRII captured onto the sensor chip. 20 mM N-(2-Acetamido)-2-aminoethanesulfonic acid, 150 mM NaCl, 1.2 mM CaCl₂, and 0.05% (w/v) TWEEN, 20 at pH7.4 was used as the running buffer, and the respective buffer was also used to dilute the soluble mouse FcγRII. To regenerate the sensor chip, 10 mM glycine-HCl at pH1.5 was used. All measurements were carried out at 25° C. […] To calculate the parameters, the BIACORE® T100 Evaluation Software (GE Healthcare) was used.

Row | Binder | celluar uptake [1] | biacore IC binding [2]
1 | M103205H795-P1497m/M103202L889-SK1 (antibody, human IgG1, kappa) heavy: not shown light: DIVMTQSPATLSLSPGERATLSCTSSQSVYHANWLSWFQQKPGQPPKLLIYWASTLAYGVPSRFSGSGSGTDFTLTISSLQPEDAATYYCAGGYGGGRYAFGQGTKVEIKRTVAAPSVFIFPPSDEQLKSGTASVVCLLNNFYPREAKVQWKVDNALQSGNSQESVTEQDSKDSTYSLSSTLTLSKADYEKHKVYACEVTHQGLSSPVTKSFNRGEC | 1.38 relative to SG1 (=1.00) | 1.49 relative to SG1 (=1.00)
2 | M103205H795-P1498m/M103202L889-SK1 (antibody, human IgG1, kappa) heavy: not shown light: DIVMTQSPATLSLSPGERATLSCTSSQSVYHANWLSWFQQKPGQPPKLLIYWASTLAYGVPSRFSGSGSGTDFTLTISSLQPEDAATYYCAGGYGGGRYAFGQGTKVEIKRTVAAPSVFIFPPSDEQLKSGTASVVCLLNNFYPREAKVQWKVDNALQSGNSQESVTEQDSKDSTYSLSSTLTLSKADYEKHKVYACEVTHQGLSSPVTKSFNRGEC | 1.56 relative to SG1 (=1.00) | 1.38 relative to SG1 (=1.00)
3 | M103205H795-P1499m/M103202L889-SK1 (antibody, human IgG1, kappa, also called MS1032LO06-P1499m) heavy: not shown light: DIVMTQSPATLSLSPGERATLSCTSSQSVYHANWLSWFQQKPGQPPKLLIYWASTLAYGVPSRFSGSGSGTDFTLTISSLQPEDAATYYCAGGYGGGRYAFGQGTKVEIKRTVAAPSVFIFPPSDEQLKSGTASVVCLLNNFYPREAKVQWKVDNALQSGNSQESVTEQDSKDSTYSLSSTLTLSKADYEKHKVYACEVTHQGLSSPVTKSFNRGEC | 3.61 relative to SG1 (=1.00) | 1.98 relative to SG1 (=1.00)
4 | M103205H795-P1500m/M103202L889-SK1 (antibody, human IgG1, kappa) heavy: not shown light: DIVMTQSPATLSLSPGERATLSCTSSQSVYHANWLSWFQQKPGQPPKLLIYWASTLAYGVPSRFSGSGSGTDFTLTISSLQPEDAATYYCAGGYGGGRYAFGQGTKVEIKRTVAAPSVFIFPPSDEQLKSGTASVVCLLNNFYPREAKVQWKVDNALQSGNSQESVTEQDSKDSTYSLSSTLTLSKADYEKHKVYACEVTHQGLSSPVTKSFNRGEC | 1.82 relative to SG1 (=1.00) | 1.32 relative to SG1 (=1.00)
5 | M103205H795-P1501m/M103202L889-SK1 (antibody, human IgG1, kappa) heavy: not shown light: DIVMTQSPATLSLSPGERATLSCTSSQSVYHANWLSWFQQKPGQPPKLLIYWASTLAYGVPSRFSGSGSGTDFTLTISSLQPEDAATYYCAGGYGGGRYAFGQGTKVEIKRTVAAPSVFIFPPSDEQLKSGTASVVCLLNNFYPREAKVQWKVDNALQSGNSQESVTEQDSKDSTYSLSSTLTLSKADYEKHKVYACEVTHQGLSSPVTKSFNRGEC | 2.4 relative to SG1 (=1.00) | 1.82 relative to SG1 (=1.00)
6 | M103205H795-P1522m/M103202L889-SK1 (antibody, human IgG1, kappa) heavy: not shown light: DIVMTQSPATLSLSPGERATLSCTSSQSVYHANWLSWFQQKPGQPPKLLIYWASTLAYGVPSRFSGSGSGTDFTLTISSLQPEDAATYYCAGGYGGGRYAFGQGTKVEIKRTVAAPSVFIFPPSDEQLKSGTASVVCLLNNFYPREAKVQWKVDNALQSGNSQESVTEQDSKDSTYSLSSTLTLSKADYEKHKVYACEVTHQGLSSPVTKSFNRGEC | 2.13 relative to SG1 (=1.00) | 1.24 relative to SG1 (=1.00)
7 | M103205H795-P1523m/M103202L889-SK1 (antibody, human IgG1, kappa) heavy: not shown light: DIVMTQSPATLSLSPGERATLSCTSSQSVYHANWLSWFQQKPGQPPKLLIYWASTLAYGVPSRFSGSGSGTDFTLTISSLQPEDAATYYCAGGYGGGRYAFGQGTKVEIKRTVAAPSVFIFPPSDEQLKSGTASVVCLLNNFYPREAKVQWKVDNALQSGNSQESVTEQDSKDSTYSLSSTLTLSKADYEKHKVYACEVTHQGLSSPVTKSFNRGEC | 1.91 relative to SG1 (=1.00) | 1.19 relative to SG1 (=1.00)
8 | M103205H795-P1524m/M103202L889-SK1 (antibody, human IgG1, kappa) heavy: not shown light: DIVMTQSPATLSLSPGERATLSCTSSQSVYHANWLSWFQQKPGQPPKLLIYWASTLAYGVPSRFSGSGSGTDFTLTISSLQPEDAATYYCAGGYGGGRYAFGQGTKVEIKRTVAAPSVFIFPPSDEQLKSGTASVVCLLNNFYPREAKVQWKVDNALQSGNSQESVTEQDSKDSTYSLSSTLTLSKADYEKHKVYACEVTHQGLSSPVTKSFNRGEC | 3.66 relative to SG1 (=1.00) | 1.4 relative to SG1 (=1.00)
9 | M103205H795-P1525m/M103202L889-SK1 (antibody, human IgG1, kappa) heavy: not shown light: DIVMTQSPATLSLSPGERATLSCTSSQSVYHANWLSWFQQKPGQPPKLLIYWASTLAYGVPSRFSGSGSGTDFTLTISSLQPEDAATYYCAGGYGGGRYAFGQGTKVEIKRTVAAPSVFIFPPSDEQLKSGTASVVCLLNNFYPREAKVQWKVDNALQSGNSQESVTEQDSKDSTYSLSSTLTLSKADYEKHKVYACEVTHQGLSSPVTKSFNRGEC | 3.55 relative to SG1 (=1.00) | 1.31 relative to SG1 (=1.00)
10 | M103205H795-P1526m/M103202L889-SK1 (antibody, human IgG1, kappa) heavy: not shown light: DIVMTQSPATLSLSPGERATLSCTSSQSVYHANWLSWFQQKPGQPPKLLIYWASTLAYGVPSRFSGSGSGTDFTLTISSLQPEDAATYYCAGGYGGGRYAFGQGTKVEIKRTVAAPSVFIFPPSDEQLKSGTASVVCLLNNFYPREAKVQWKVDNALQSGNSQESVTEQDSKDSTYSLSSTLTLSKADYEKHKVYACEVTHQGLSSPVTKSFNRGEC | 1.2 relative to SG1 (=1.00) | 1.04 relative to SG1 (=1.00)
11 | M103205H795-P1527m/M103202L889-SK1 (antibody, human IgG1, kappa) heavy: not shown light: DIVMTQSPATLSLSPGERATLSCTSSQSVYHANWLSWFQQKPGQPPKLLIYWASTLAYGVPSRFSGSGSGTDFTLTISSLQPEDAATYYCAGGYGGGRYAFGQGTKVEIKRTVAAPSVFIFPPSDEQLKSGTASVVCLLNNFYPREAKVQWKVDNALQSGNSQESVTEQDSKDSTYSLSSTLTLSKADYEKHKVYACEVTHQGLSSPVTKSFNRGEC | 0.92 relative to SG1 (=1.00) | 0.98 relative to SG1 (=1.00)
12 | M103205H795-P1528m/M103202L889-SK1 (antibody, human IgG1, kappa) heavy: not shown light: DIVMTQSPATLSLSPGERATLSCTSSQSVYHANWLSWFQQKPGQPPKLLIYWASTLAYGVPSRFSGSGSGTDFTLTISSLQPEDAATYYCAGGYGGGRYAFGQGTKVEIKRTVAAPSVFIFPPSDEQLKSGTASVVCLLNNFYPREAKVQWKVDNALQSGNSQESVTEQDSKDSTYSLSSTLTLSKADYEKHKVYACEVTHQGLSSPVTKSFNRGEC | 3.02 relative to SG1 (=1.00) | 1.12 relative to SG1 (=1.00)
13 | M103205H795-P1529m/M103202L889-SK1 (antibody, human IgG1, kappa) heavy: not shown light: DIVMTQSPATLSLSPGERATLSCTSSQSVYHANWLSWFQQKPGQPPKLLIYWASTLAYGVPSRFSGSGSGTDFTLTISSLQPEDAATYYCAGGYGGGRYAFGQGTKVEIKRTVAAPSVFIFPPSDEQLKSGTASVVCLLNNFYPREAKVQWKVDNALQSGNSQESVTEQDSKDSTYSLSSTLTLSKADYEKHKVYACEVTHQGLSSPVTKSFNRGEC | 2.86 relative to SG1 (=1.00) | 1.08 relative to SG1 (=1.00)
14 | M103205H795-P1530m/M103202L889-SK1 (antibody, human IgG1, kappa) heavy: not shown light: DIVMTQSPATLSLSPGERATLSCTSSQSVYHANWLSWFQQKPGQPPKLLIYWASTLAYGVPSRFSGSGSGTDFTLTISSLQPEDAATYYCAGGYGGGRYAFGQGTKVEIKRTVAAPSVFIFPPSDEQLKSGTASVVCLLNNFYPREAKVQWKVDNALQSGNSQESVTEQDSKDSTYSLSSTLTLSKADYEKHKVYACEVTHQGLSSPVTKSFNRGEC | 3.12 relative to SG1 (=1.00) | 1.09 relative to SG1 (=1.00)
15 | M103205H795-P1531m/M103202L889-SK1 (antibody, human IgG1, kappa) heavy: not shown light: DIVMTQSPATLSLSPGERATLSCTSSQSVYHANWLSWFQQKPGQPPKLLIYWASTLAYGVPSRFSGSGSGTDFTLTISSLQPEDAATYYCAGGYGGGRYAFGQGTKVEIKRTVAAPSVFIFPPSDEQLKSGTASVVCLLNNFYPREAKVQWKVDNALQSGNSQESVTEQDSKDSTYSLSSTLTLSKADYEKHKVYACEVTHQGLSSPVTKSFNRGEC | 2.35 relative to SG1 (=1.00) | 1.01 relative to SG1 (=1.00)
16 | M103205H795-P1532m/M103202L889-SK1 (antibody, human IgG1, kappa) heavy: not shown light: DIVMTQSPATLSLSPGERATLSCTSSQSVYHANWLSWFQQKPGQPPKLLIYWASTLAYGVPSRFSGSGSGTDFTLTISSLQPEDAATYYCAGGYGGGRYAFGQGTKVEIKRTVAAPSVFIFPPSDEQLKSGTASVVCLLNNFYPREAKVQWKVDNALQSGNSQESVTEQDSKDSTYSLSSTLTLSKADYEKHKVYACEVTHQGLSSPVTKSFNRGEC | 4.16 relative to SG1 (=1.00) | 1.23 relative to SG1 (=1.00)
17 | M103205H795-P1533m/M103202L889-SK1 (antibody, human IgG1, kappa) heavy: not shown light: DIVMTQSPATLSLSPGERATLSCTSSQSVYHANWLSWFQQKPGQPPKLLIYWASTLAYGVPSRFSGSGSGTDFTLTISSLQPEDAATYYCAGGYGGGRYAFGQGTKVEIKRTVAAPSVFIFPPSDEQLKSGTASVVCLLNNFYPREAKVQWKVDNALQSGNSQESVTEQDSKDSTYSLSSTLTLSKADYEKHKVYACEVTHQGLSSPVTKSFNRGEC | 3.52 relative to SG1 (=1.00) | 1.18 relative to SG1 (=1.00)
18 | M103205H795-P1534m/M103202L889-SK1 (antibody, human IgG1, kappa) heavy: not shown light: DIVMTQSPATLSLSPGERATLSCTSSQSVYHANWLSWFQQKPGQPPKLLIYWASTLAYGVPSRFSGSGSGTDFTLTISSLQPEDAATYYCAGGYGGGRYAFGQGTKVEIKRTVAAPSVFIFPPSDEQLKSGTASVVCLLNNFYPREAKVQWKVDNALQSGNSQESVTEQDSKDSTYSLSSTLTLSKADYEKHKVYACEVTHQGLSSPVTKSFNRGEC | 3.12 relative to SG1 (=1.00) | 1.12 relative to SG1 (=1.00)
